Assay results as given in patent publication USRE49280 (University of Texas, dated 2022).

Target: T1, TGF-β2 K25R I92V K94R (UniProt P61812 303-414, K25R; I92V; K94R)
T1 construct: mature; Immobilised on the SPR sensor surface
T1 sequence (looked up): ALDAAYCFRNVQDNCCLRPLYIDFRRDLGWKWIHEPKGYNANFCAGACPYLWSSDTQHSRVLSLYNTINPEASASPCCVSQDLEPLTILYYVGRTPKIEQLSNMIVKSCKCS
Assay: SPR, receptor injected over immobilised TGF-β2 K25R I92V K94R

maximal mass-normalized response relative to that for TβRII: ~0.5 fold of TβRII
B1: TGF-β type III receptor endoglin-like domain (receptor)
chain: GPEPSTRCELSPINASHPVQALMESFTVLSGCASRGTTGLPREVHVLNLRSTDQGPGQRQREVTLHLNPIASVHTHHKPIVFLLNSPQPLVWHLKTERLAAGVPRLFLVSEGSVVQFPSGNFSLTAETEERNFPQENEHLLRWAQKEYGAVTSFTELKIARNIYIKVGEDQVFPPTCNIGKNFLSLNYLAEYLQPKAAEGCVLPSQPHEKEVHIIELITPSSNPYSAFQVDIIVDIRPAQEDPEVVKNLVLILKCKKSVNWVIKSFDVKGNLKVIAPNSIGFGKESERSMTMTKLVRDDIPSTQENLMKWALDNGYRPVTSYTMAPVANRFHLRLENNEEMRDEEVHTIPPELRILLDPD
notes: also called TβRIIIE; BGE
